For this series, the system named is HEK293T/16 cells. The series can be described thus: SEAP-based surrogate killing assay of iCasp9 mutants. It counts as cell-based, human. The following applies: for effect on basal / catalytic activity: in words, versus wild type. The protocol:
Early passage HEK293T/16 cells (ATCC, Manassas, Va.) were maintained in IMDM, GlutaMAX™ (Life Technologies, Carlsbad, Calif.) supplemented with 10% FBS, 100 U/mL penicillin, and 100 […] until transfection in a humidified, 37° C., 5% CO2/95% air atmosphere. Cells in logarithmic-phase growth were transiently transfected with 800 ng to 2 μg of expression plasmid encoding iCasp9 mutants and 500 ng of an expression plasmid encoding SRα promoter driven SEAP per million cells in 15-mL conical tubes. […] GeneJammer® Transfection Reagent at a ratio of 3 μl per ug of plasmid DNA was used to transiently transfect HEK293T/16 cells in the absence of antibiotics. 100 μl or 2 mL of the transfection mixture was added to each well in 96-well or 6-well plate, respectively.
Briefly, after 65° C. heat denaturation for 45 minutes to reduce background caused by endogenous (and serum-derived) alkaline phosphatases that are sensitive to heat, 5 μl of supernatants was added to 95 μl of PBS and added to 100 μl of substrate buffer, containing 1 μl of 100 mM 4-methylumbelliferyl phosphate (4-MUP; Sigma, St. Louis, Mo.) re-suspended in 2 M diethanolamine. Hydrolysis of 4-MUP by SEAP produces a fluorescent […] with excitation/emission (355/460 nm), which can be easily measured. Assays were performed in black opaque 96-well plates to minimize fluorescence leakage between wells. […] of the mixture was seeded onto each well of a 96-well plate. […] For the assay, 4-methylumbelliferyl phosphate substrate was hydrolyzed by SEAP to 4-methylumbelliferon, a metabolite that can be excited with 364 nm and detected with an emission filter of 448 nm. Since SEAP is used as a marker for cell viability, reduced SEAP reading corresponds with increased iCaspase-9 activities.

B1: D327G: chimeric modified Caspase-9 polypeptide (protein)
chain: VDGFGDVGALESLRGNADLAYILSMEPCGHCLIINNVNFCRESGLRTRTGSNIDCEKLRRRFSSLHFMVEVKGDLTAKKMVLALLELARQDHGALDCCVVVILSHGCQASHLQFPGAVYGTDGCPVSVEKIVNIFNGTSCPSLGGKPKLFFIQACGGEQKDHGFEVASTSPEDESPGSNPEPDATPFQEGLRTFGQLDAISSLPTPSDIFVSYSTFPGFVSWRDPKSGSWYVETLDDIFEQWAHSEDLQSLLLRVANAVSVKGIYKQMPGCFNFLRKKLFFKTSASRA
For B1, the “effect on basal / catalytic activity” value was “did not lower basal activity”.

B2: D327K: chimeric modified Caspase-9 polypeptide (protein)
chain: VDGFGDVGALESLRGNADLAYILSMEPCGHCLIINNVNFCRESGLRTRTGSNIDCEKLRRRFSSLHFMVEVKGDLTAKKMVLALLELARQDHGALDCCVVVILSHGCQASHLQFPGAVYGTDGCPVSVEKIVNIFNGTSCPSLGGKPKLFFIQACGGEQKDHGFEVASTSPEDESPGSNPEPDATPFQEGLRTFKQLDAISSLPTPSDIFVSYSTFPGFVSWRDPKSGSWYVETLDDIFEQWAHSEDLQSLLLRVANAVSVKGIYKQMPGCFNFLRKKLFFKTSASRA
As to B2, the “effect on basal / catalytic activity” value was “did not lower basal activity”.

B3: N405A: chimeric modified Caspase-9 polypeptide (protein, UniProt P55211 1-416, looked up, variant N405A)
chain: MDEADRRLLRRCRLRLVEELQVDQLWDALLSRELFRPHMIEDIQRAGSGSRRDQARQLIIDLETRGSQALPLFISCLEDTGQDMLASFLRTNRQAAKLSKPTLENLTPVVLRPEIRKPEVLRPETPRPVDIGSGGFGDVGALESLRGNADLAYILSMEPCGHCLIINNVNFCRESGLRTRTGSNIDCEKLRRRFSSLHFMVEVKGDLTAKKMVLALLELAQQDHGALDCCVVVILSHGCQASHLQFPGAVYGTDGCPVSVEKIVNIFNGTSCPSLGGKPKLFFIQACGGEQKDHGFEVASTSPEDESPGSNPEPDATPFQEGLRTFDQLDAISSLPTPSDIFVSYSTFPGFVSWRDPKSGSWYVETLDDIFEQWAHSEDLQSLLLRVANAVSVKGIYKQMPGCFAFLRKKLFFKTS
modifications: chimeric, fused to dimerization domain
notes: chimeric modified Caspase-9 polypeptide
Turning to B3, the “effect on basal / catalytic activity” value was “no effect”.

B4: N405F: chimeric modified Caspase-9 polypeptide (protein, UniProt P55211 1-416, looked up, variant N405F)
chain: MDEADRRLLRRCRLRLVEELQVDQLWDALLSRELFRPHMIEDIQRAGSGSRRDQARQLIIDLETRGSQALPLFISCLEDTGQDMLASFLRTNRQAAKLSKPTLENLTPVVLRPEIRKPEVLRPETPRPVDIGSGGFGDVGALESLRGNADLAYILSMEPCGHCLIINNVNFCRESGLRTRTGSNIDCEKLRRRFSSLHFMVEVKGDLTAKKMVLALLELAQQDHGALDCCVVVILSHGCQASHLQFPGAVYGTDGCPVSVEKIVNIFNGTSCPSLGGKPKLFFIQACGGEQKDHGFEVASTSPEDESPGSNPEPDATPFQEGLRTFDQLDAISSLPTPSDIFVSYSTFPGFVSWRDPKSGSWYVETLDDIFEQWAHSEDLQSLLLRVANAVSVKGIYKQMPGCFFFLRKKLFFKTS
modifications: chimeric, fused to dimerization domain
notes: as for B3
Consider B4, for which the “effect on basal / catalytic activity” value was “lowered basal activity”.

B5: G402I: chimeric modified Caspase-9 polypeptide (protein, UniProt P55211 1-416, looked up, variant G402I)
chain: MDEADRRLLRRCRLRLVEELQVDQLWDALLSRELFRPHMIEDIQRAGSGSRRDQARQLIIDLETRGSQALPLFISCLEDTGQDMLASFLRTNRQAAKLSKPTLENLTPVVLRPEIRKPEVLRPETPRPVDIGSGGFGDVGALESLRGNADLAYILSMEPCGHCLIINNVNFCRESGLRTRTGSNIDCEKLRRRFSSLHFMVEVKGDLTAKKMVLALLELAQQDHGALDCCVVVILSHGCQASHLQFPGAVYGTDGCPVSVEKIVNIFNGTSCPSLGGKPKLFFIQACGGEQKDHGFEVASTSPEDESPGSNPEPDATPFQEGLRTFDQLDAISSLPTPSDIFVSYSTFPGFVSWRDPKSGSWYVETLDDIFEQWAHSEDLQSLLLRVANAVSVKGIYKQMPICFNFLRKKLFFKTS
modifications: chimeric, fused to dimerization domain
notes: as for B3
On to B5, for which the “effect on basal / catalytic activity” value was “catalytically inactive”.

B6: ^402GCFNF^406AAAAA: Caspase-9 with dimerization residues 402-406 replaced by AAAAA (protein, UniProt P55211 1-416, looked up, variant G402A C403A F404A N405A F406A)
chain: MDEADRRLLRRCRLRLVEELQVDQLWDALLSRELFRPHMIEDIQRAGSGSRRDQARQLIIDLETRGSQALPLFISCLEDTGQDMLASFLRTNRQAAKLSKPTLENLTPVVLRPEIRKPEVLRPETPRPVDIGSGGFGDVGALESLRGNADLAYILSMEPCGHCLIINNVNFCRESGLRTRTGSNIDCEKLRRRFSSLHFMVEVKGDLTAKKMVLALLELAQQDHGALDCCVVVILSHGCQASHLQFPGAVYGTDGCPVSVEKIVNIFNGTSCPSLGGKPKLFFIQACGGEQKDHGFEVASTSPEDESPGSNPEPDATPFQEGLRTFDQLDAISSLPTPSDIFVSYSTFPGFVSWRDPKSGSWYVETLDDIFEQWAHSEDLQSLLLRVANAVSVKGIYKQMPAAAAALRKKLFFKTS
With B6, the “effect on basal / catalytic activity” value is “catalytically inactive”.

B7: C403P: chimeric modified Caspase-9 polypeptide (protein, UniProt P55211 1-416, looked up, variant C403P)
chain: MDEADRRLLRRCRLRLVEELQVDQLWDALLSRELFRPHMIEDIQRAGSGSRRDQARQLIIDLETRGSQALPLFISCLEDTGQDMLASFLRTNRQAAKLSKPTLENLTPVVLRPEIRKPEVLRPETPRPVDIGSGGFGDVGALESLRGNADLAYILSMEPCGHCLIINNVNFCRESGLRTRTGSNIDCEKLRRRFSSLHFMVEVKGDLTAKKMVLALLELAQQDHGALDCCVVVILSHGCQASHLQFPGAVYGTDGCPVSVEKIVNIFNGTSCPSLGGKPKLFFIQACGGEQKDHGFEVASTSPEDESPGSNPEPDATPFQEGLRTFDQLDAISSLPTPSDIFVSYSTFPGFVSWRDPKSGSWYVETLDDIFEQWAHSEDLQSLLLRVANAVSVKGIYKQMPGPFNFLRKKLFFKTS
modifications: chimeric, fused to dimerization domain
notes: as for B3
As for B7, the “effect on basal / catalytic activity” value was “catalytically inactive”.

B8: G402Y: chimeric modified Caspase-9 polypeptide (protein, UniProt P55211 1-416, looked up, variant G402Y)
chain: MDEADRRLLRRCRLRLVEELQVDQLWDALLSRELFRPHMIEDIQRAGSGSRRDQARQLIIDLETRGSQALPLFISCLEDTGQDMLASFLRTNRQAAKLSKPTLENLTPVVLRPEIRKPEVLRPETPRPVDIGSGGFGDVGALESLRGNADLAYILSMEPCGHCLIINNVNFCRESGLRTRTGSNIDCEKLRRRFSSLHFMVEVKGDLTAKKMVLALLELAQQDHGALDCCVVVILSHGCQASHLQFPGAVYGTDGCPVSVEKIVNIFNGTSCPSLGGKPKLFFIQACGGEQKDHGFEVASTSPEDESPGSNPEPDATPFQEGLRTFDQLDAISSLPTPSDIFVSYSTFPGFVSWRDPKSGSWYVETLDDIFEQWAHSEDLQSLLLRVANAVSVKGIYKQMPYCFNFLRKKLFFKTS
modifications: chimeric, fused to dimerization domain
notes: as for B3
Regarding B8, the “effect on basal / catalytic activity” value was “catalytically inactive”.

B9: ^402GCFNF^406ISAQT (Casp-10): Caspase-9 with dimerization residues 402-406 replaced by those of Caspase-10 (protein, UniProt P55211 1-416, looked up, variant G402I C403S F404A N405Q F406T)
chain: MDEADRRLLRRCRLRLVEELQVDQLWDALLSRELFRPHMIEDIQRAGSGSRRDQARQLIIDLETRGSQALPLFISCLEDTGQDMLASFLRTNRQAAKLSKPTLENLTPVVLRPEIRKPEVLRPETPRPVDIGSGGFGDVGALESLRGNADLAYILSMEPCGHCLIINNVNFCRESGLRTRTGSNIDCEKLRRRFSSLHFMVEVKGDLTAKKMVLALLELAQQDHGALDCCVVVILSHGCQASHLQFPGAVYGTDGCPVSVEKIVNIFNGTSCPSLGGKPKLFFIQACGGEQKDHGFEVASTSPEDESPGSNPEPDATPFQEGLRTFDQLDAISSLPTPSDIFVSYSTFPGFVSWRDPKSGSWYVETLDDIFEQWAHSEDLQSLLLRVANAVSVKGIYKQMPISAQTLRKKLFFKTS
modifications: Caspase-10 dimerization residues swapped in
For the molecule B9, the “effect on basal / catalytic activity” value was “reduced basal activity but higher IC50”.

B10: D330A-N405Q: chimeric modified Caspase-9 polypeptide, double mutant, SEQ ID NO: 28 (protein)
chain: GFGDVGALESLRGNADLAYILSMEPCGHCLIINNVNFCRESGLRTRTGSNIDCEKLRRRFSSLHFMVEVKGDLTAKKMVLALLELARQDHGALDCCVVVILSHGCQASHLQFPGAVYGTDGCPVSVEKIVNIFNGTSCPSLGGKPKLFFIQACGGEQKDHGFEVASTSPEDESPGSNPEPDATPFQEGLRTFDQLAAISSLPTPSDIFVSYSTFPGFVSWRDPKSGSWYVETLDDIFEQWAHSEDLQSLLLRVANAVSVKGIYKQMPGCFQFLRKKLFFKTS
Turning to B10, the “effect on basal / catalytic activity” value is “intermediate”. Moreover, for the setting “1 μg iCasp9 per million cells”, the “relative SEAP activity Units (basal, without AP1903)” value was 205772. For the same molecule, the “relative SEAP activity Units (basal, without AP1903)” value (2 μg iCasp9 per million cells) stood at 174366.

Values taken from patent publication US20220152100A1, “METHODS FOR CONTROLLED ACTIVATION OR ELIMINATION OF THERAPEUTIC CELLS” (Bellicum Pharmaceuticals, Inc., priority 2014, published 2022).
